Biological target: IL-28 receptor (IL-28 receptor alpha subunit with endogenous CRF2-4) on transfected 293 HEK cells (human)
Assay: cell-based or functional assay

Chain of IL-28 receptor (IL-28 receptor alpha subunit with endogenous CRF2-4) on transfected 293 HEK cells (human) (Q8IU57 21-520): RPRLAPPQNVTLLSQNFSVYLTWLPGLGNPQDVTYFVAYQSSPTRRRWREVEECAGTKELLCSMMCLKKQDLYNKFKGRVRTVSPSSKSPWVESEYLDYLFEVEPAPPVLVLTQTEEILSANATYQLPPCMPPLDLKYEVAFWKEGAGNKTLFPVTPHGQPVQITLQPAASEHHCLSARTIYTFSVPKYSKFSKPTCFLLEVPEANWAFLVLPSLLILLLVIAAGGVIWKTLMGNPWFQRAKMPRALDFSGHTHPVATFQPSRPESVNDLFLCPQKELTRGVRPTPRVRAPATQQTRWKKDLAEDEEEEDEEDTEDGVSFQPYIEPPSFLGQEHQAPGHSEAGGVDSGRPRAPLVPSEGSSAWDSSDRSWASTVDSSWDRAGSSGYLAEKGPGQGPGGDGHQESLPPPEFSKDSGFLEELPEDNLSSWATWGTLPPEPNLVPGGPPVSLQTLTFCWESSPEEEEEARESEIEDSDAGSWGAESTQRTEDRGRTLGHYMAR

HuIL10 (from UniProt P22301 19-178) (ligand)
ISRE-luciferase fold induction over medium alone, 293 HEK cells transfected with ISRE-Luc. and IL-28R; ligand 100 ng/ml (fold induction): 0.5

IL-28B (SEQ ID NO:6) (from UniProt Q8IZI9 22-196) (ligand)
ISRE-luciferase fold induction over medium alone, 293 HEK cells transfected with ISRE-Luc. and IL-28R; ligand 125 ng/ml (fold induction): 104

Zcyto10 (from UniProt Q9NYY1 25-176) (ligand)
ISRE-luciferase fold induction over medium alone, 293 HEK cells transfected with ISRE-Luc. and IL-28R; ligand 125 ng/ml (fold induction): 1

Reference: patent publication US20140178333A1
